{"source": "patent US12012599B2", "about": "“Compositions and methods for modulating left-right differentiation factor (LEFTY) and bone morphogenic factor (BMP)” (CZ Biohub SF LLC, priority 2018, dated 2024)", "molecules": {"B1": {"name": "LEFTY1: left-right determination factor 1, secreted TGF-β superfamily protein; generic LEFTY may mean LEFTY1 or LEFTY2 (protein, UniProt O75610 77-366, looked up)", "Left-right determination …": "RFSQSFREVAGRFLALEASTHLLVFGMEQRLPPNSELVQAVLRLFQEPVPKAALHRHGRLSPRSARARVTVEWLRVRDDGSNRTSLIDSRLVSVHESGWKAFDVTEAVNFWQQLSRPRQPLLLQVSVQREHLGPLASGAHKLVRFASQGAPAGLGEPQLELHTLDLGDYGAQGDCDPEAPMTEGTRCCRQEMYIDLQGMKWAENWVLEPPGFLAYECVGTCRQPPEALAFKWPFLGPRQCIASETDSLPMIVSIKEGGRTRPQVVSLPNMRVQKCSCASDGALVPRRLQP"}}, "key": {"pSMAD2": {"system": "pSMAD2", "assay": "Western-blot of pSMAD2 in Comma-D mammary epithelial cells", "type": "cell-based, mouse", "conditions": "Comma-D cells blocked with LEFTY1 200 ng/ml 1 hour, stimulated with BMP7 and Nodal 50 ng/ml 30 minutes", "description": "FIGS. 4J-4L. LEFTY1 inhibits pSMAD2 and pSMAD5 in Comma-D mouse mammary epithelial cells. […] Comma-D cells were serum starved 16 hours and blocked with LEFTY1 (200 ng/ml) for 1 hour and stimulated with BMP7 (50 ng/ml) and Nodal (50 ng/ml) for 30 minutes in serum free media. Cells were harvested in 1×RIPA Buffer with 1× protease and phosphatase inhibitors on ice. Lysates were diluted in 4× sample buffer and boiled at 95° C. for 5 minutes and then run on a 10% SDS-page gradient gels at 100V for 1 hour. […] The membranes were incubated with either pSMAD2, pSMAD5, total SMAD2/3 or SMAD1/5/8 antibodies overnight. Incubation with secondary antibodies containing fluorophores at 1:20,000 dilution (IRDye 800CW conjugated goat anti-rabbit #926-32211, IRDye 680 conjugated goat anti-mouse antibodies #926-32220, LI-COR Biosciences, Lincoln, NE) enabled visualization on the Odyssey Infrared Imaging System from LI-COR Biosciences. […] Data are represented as median±S.D. Statistical analysis, one-way ANOVA with post-hoc Tukey multiple comparison, ****p<0.0001, ***p<0.001; unless stated analysis is non-significant with p>0.05."}, "BMPR2 [1]": {"system": "BMPR2", "assay": "LEFTY1 and BMPR2 immunoprecipitation assays", "type": "binding", "conditions": "both directions", "excerpt": "(§1) FIGS. 5A-5H. LEFTY1 inhibits pSMAD2 and pSMAD5 in the basal mammary epithelial cells. […] KRT8 was used to stain the luminal cells and SMA for basal cells (Magnification 400×). […] Gapdh was used as a housekeeping gene. […] Ten different fields were counted per condition (n=3). Data are represented as median±S.D. Statistical analysis, (a and b) Student's T-test, * p<0.05; (h) One-way ANOVA with Dunnet's adjustment, ****p<0.0001.\n(§2) FIGS. 7A-7E. LEFTY1 interaction with BMPR2 inhibits the phosphorylation of SMAD5. […] Ten different fields were counted per condition (n=3). […] 48 hours after transfection, cells were washed and incubated with different concentrations of BMP7 (from 0-800 ng/ml) for 16 hours prior to collection of the cells. […] 48 hours after transfection, cells were washed and incubated with different concentrations of LEFTY1 (from 0-200 ng/ml) for 16 hours prior to collection of the cells. […] 48 hours after transfection, cells were washed and incubated with different concentrations of BMP7 and LEFTY1 at the indicated concentrations for 16 hours prior to collection of the cells. Data are represented as median±S.D. Statistical analysis, one-way ANOVA with Dunnet's adjustment, *p<0.05; **p<0.01; ****p<0.0001.\nSince BMPR2 is upstream of pSMAD1/5/8, we reasoned that BMPR2 could serve as a common BMP Type II receptor that mediates the BMP7/LEFTY1 axis. […]"}, "pSMAD5 activation": {"system": "pSMAD5 activation", "assay": "pGL3 BRE-luciferase reporter in 3T3-L1 fibroblasts", "type": "cell-based", "conditions": "16 hours", "description": "as §2\nFIGS. 7F-7I: pSMAD5 activation in the presence of LEFTY1, BMP2 and BMP4. […] 48 hours after transfection, cells were washed and incubated with different concentrations of BMP2 (from 0-800 ng/ml) for 16 hours prior to collection of the cells. […] 48 hours after transfection, cells were washed and incubated with different concentrations of BMP2 and LEFTY1 for 16 hours prior to collection of the cells. FIG. 7H and FIG. 7I show 3T3-L1 fibroblasts transfected with pGL3 BRE-luciferase plasmid. […]\nWe also evaluated whether LEFTY1 could inhibit pSMAD5 activation induced by other BMPs. […]"}, "BMPR2 [2]": {"system": "BMPR2", "assay": "In situ target-mediated (proximity) ligation assay, BMPR2", "type": "binding", "excerpt": "as §1\nFIGS. 5I-5J: LEFTY1 preferentially interacts with BMPR2. […] BMP7-BMPR2 interaction was used as a positive control, and mouse and rabbit IgGs were used as technical negative controls. The interaction of LEFTY with Wnt receptor LRP6 was analyzed as a biological negative control. […] Data are represented as median±S.D. Statistical analysis, one-way ANOVA post-hoc Tukey multiple comparison, ****p<0.0001, ***p<0.001; unless stated analysis is non-significant with p>0.05.\nSince BMPR2 is upstream of pSMAD1/5/8, we reasoned that BMPR2 could serve as a common BMP Type II receptor that mediates the BMP7/LEFTY1 axis. […] The interaction between BMP7 and BMPR2 was used as a positive control (p<0.0001) (FIG. 5G-5H and FIG. 7B).\nNext, we assessed the interaction of LEFTY with different type I and type II TGF-β receptors. […] We also analyzed the interaction of LEFTY with Wnt receptor LRP6 as a biological negative control. […]"}}, "note": "Read-outs that look alike come from different tables or passages of the source."}
{"molecule": "B1", "values": [{"measurement": "pSMAD2 signal", "setting": "pSMAD2", "value": "inhibited"}, {"measurement": "binding of LEFTY1 to BMPR2 (pull-down)", "setting": "BMPR2 [1]", "value": "able to detect the binding"}, {"measurement": "inhibition of BMP7-mediated pSMAD5 activation", "setting": "pSMAD5 activation", "value": "inhibit BMP7-mediated pSMAD5 activation in a dose-dependent fashion"}, {"measurement": "inhibition of pSMAD5 activation induced by BMP2 or BMP4", "setting": "pSMAD5 activation", "value": "less of an inhibitory effect"}, {"measurement": "protein interaction with BMPR2", "setting": "BMPR2 [2]", "value": "significant protein interaction"}, {"measurement": "protein interaction with BMPR2", "setting": "BMPR2 [2]; listed as LEFTY", "value": "interacted preferentially"}]}
